This is an account of results in patent publication US20230374147A1 (HUMMINGBIRD BIOSCIENCE PTE, published 2023).

Residue numbers refer to the chain shown, from its start.

One assay concerns the target T1, BCMA Mut (human, UniProt Q02223 1-184).
T1 construct: Expressed on HEK293T cells; also called human BCMA comprising the substitutions Y13A, D15A, L17G and L18G
T1 chain: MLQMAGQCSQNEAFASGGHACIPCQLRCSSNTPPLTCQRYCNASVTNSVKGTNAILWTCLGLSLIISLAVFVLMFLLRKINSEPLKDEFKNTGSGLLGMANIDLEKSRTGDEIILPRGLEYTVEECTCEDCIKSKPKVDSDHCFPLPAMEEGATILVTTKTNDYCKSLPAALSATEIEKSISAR
Briefly: flow cytometry on HEK293T cells expressing BCMA Mut. For orientation: A flow cytometer gives signals particle by particle.

In assay [1] the target is T2, human BCMA expressed on cells (human, UniProt Q02223 1-184).
T2 construct: the cell line is named under assay; also called wildtype human BCMA
T2 sequence: T1 chain with A13Y, A15D, G17L, G18L
The assay is described as follows: flow cytometry, H929 cells (BCMA-expressing).

Assay [2] concerns the target T3, Human BCMA-His (Sino Biological, 10620-H08H) (human, UniProt Q02223 1-54).
T3 construct: not shown: His tag
T3 sequence: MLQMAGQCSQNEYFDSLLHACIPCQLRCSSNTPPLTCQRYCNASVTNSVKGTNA
Briefly: ELISA, coated Human BCMA-His. Background: An ELISA detects its analyte on a solid surface through an enzyme-linked reagent.

The target in assay [3] is T4, His-tagged human BCMA (Acro Biosystems, Cat. #BCA-H522y) (human, UniProt Q02223 1-54).
T4 construct: also called huBCMA; P1; not shown: His tag
T4 sequence: T3 sequence
Briefly: BLI, His-tagged human BCMA on HIS1K tip; R2 0.9957. (In general: In BLI a coated tip is dipped into the sample, and binding shifts an interference pattern.)

Assay [4] addresses T4, His-tagged human BCMA (Acro Biosystems, …). The assay is described as follows: ELISA, reference antibody, coated His-tagged antigen.
Assay [5] addresses T5, His-tagged cynomolgous macaque BCMA (Acro Biosystems, BCA-C52H7) (cynomolgus macaque, UniProt Q02223 1-54 (human entry)).
T5 construct: Bought protein; also called cyno BCMA; CyBCMA; not shown: His tag
Briefly: ELISA, coated Cyno BCMA-His.

B1: J6M0 (antibody, V domains shown)
VH: QVQLVQSGAEVKKPGSSVKVSCKASGGTFSNYWMHWVRQAPGQGLEWMGATYRGHSDTYYNQKFKGRVTITADKSTSTAYMELSSLRSEDTAVYYCARGAIYDGYDVLDNWGQGTLVTVSS
VL: DIQMTQSPSSLSASVGDRVTITCSASQDISNYLNWYQQKPGKAPKLLIYYTSNLHSGVPSRFSGSGSGTDFTLTISSLQPEDFATYYCQQYRKLPWTFGQGTKLEIK
notes: also called J6M0-hIgG1; anti-BCMA
What is called EC50 (read off the curve) is the concentration needed to bring the measured effect to its halfway point. Broadly, the EC50 is the concentration giving half of the maximal effect. The Kd is the constant that tells how readily two partners part at equilibrium. As to B1, in the assay with BCMA Mut, the binding result is recorded as “binds”. Moreover, the “EC50 (read off the curve)” value in assay [1] is approximately 1 µg/mL. Besides, the EC50 in assay [2] came out at 0.018 nM; in assay [4] it was 0.0126 µg/mL; in assay [5], 0.015 nM. Further, in assay [3], the Kd was less than 0.001 nM.
